Measured values taken from patent publication US20260125457A1 (Janssen / Centocor, published 2026).

Experiments:
[1] = target: HIS-CALRdel52 (produced in E. coli); assay: QC monoclonal phage ELISA, helper phage control
[2] = target: T1, CD3 on primary human pan T cells (human, UniProt P07766 23-207); assay: flow cytometry on pan CD3 T cells, 1 h at 37 C, AF647 secondary antibody, Geometric Mean
T1 construct: whole, on cells; also called CD3e; CD3ε
Protocol: FIG. 22 depicts binding of different CALRmutxCD3 bispecific antibodies to pan CD3 T cells. Flow cytometry was used to evaluate CALRmutxCD3 binding to pan CD3 T cells in vitro, by 1 hour 37° C. incubation, with subsequent incubation with secondary AF647-labeled antibody. Geometric mean fluorescence intensity of AF647 was measured to determine antibody binding.
Flow cytometry was used to evaluate the CD3 arm binding of CALRmutxCD3 antibodies listed in Table 21 to CD3+ pan T cells from healthy human donor. CALRmutxCD3 were tested after 1 hour 37° C. incubation with pan T cells.

[3] = target: T2, wild-type calreticulin (CALRwt) expressed with MPL in engineered cancer cells (UniProt P27797 18-417, limits assumed); assay: flow cytometry on ELF-153 MPL CALRwt cells, 1 h at 37 C, AF647 secondary antibody, Geometric Mean
T2 construct: whole, on cells; also called OCI-M2 MPL CALRwt
T2 sequence (looked up): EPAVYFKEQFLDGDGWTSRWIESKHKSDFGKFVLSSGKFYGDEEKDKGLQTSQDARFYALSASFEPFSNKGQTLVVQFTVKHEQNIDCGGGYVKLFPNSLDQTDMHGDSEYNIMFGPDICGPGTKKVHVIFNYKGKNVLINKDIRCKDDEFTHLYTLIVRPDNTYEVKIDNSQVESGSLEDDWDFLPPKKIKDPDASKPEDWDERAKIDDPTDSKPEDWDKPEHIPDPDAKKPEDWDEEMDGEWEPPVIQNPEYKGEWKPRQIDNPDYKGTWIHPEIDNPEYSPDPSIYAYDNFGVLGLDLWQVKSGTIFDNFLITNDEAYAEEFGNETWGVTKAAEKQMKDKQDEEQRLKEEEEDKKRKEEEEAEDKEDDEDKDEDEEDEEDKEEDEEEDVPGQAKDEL
Protocol: (§1) FIGS. 21A-21F depict binding of different CALRmutxCD3 bispecific antibodies to CALRmut-negative or CALRmut-positive cells. Flow cytometry was used to evaluate CALRmutxCD3 binding to CALRmut-negative and CALRmut-positive cancer cells in vitro. CALRmutxCD3 antibodies were tested on a panel of cell lines, engineered to express MPL and CALRmut, after 1 hour 37° C. incubation, with subsequent incubation with secondary AF647-labeled antibody. Geometric mean fluorescence intensity of AF647 was measured to determine antibody binding.

[4] = target: T3, CALRins5 (mutant calreticulin, 5 base pair insertion, Type 2) expressed with MPL on engineered cancer cells (UniProt P27797 18-417); assay: flow cytometry on ELF-153 MPL CALRins5 cells, 1 h at 37 C, AF647 secondary antibody, Geometric Mean
T3 construct: whole, on cells; On the cell surface in complex with MPL; also called OCI-M2 MPL CALRins5
T3 sequence (looked up): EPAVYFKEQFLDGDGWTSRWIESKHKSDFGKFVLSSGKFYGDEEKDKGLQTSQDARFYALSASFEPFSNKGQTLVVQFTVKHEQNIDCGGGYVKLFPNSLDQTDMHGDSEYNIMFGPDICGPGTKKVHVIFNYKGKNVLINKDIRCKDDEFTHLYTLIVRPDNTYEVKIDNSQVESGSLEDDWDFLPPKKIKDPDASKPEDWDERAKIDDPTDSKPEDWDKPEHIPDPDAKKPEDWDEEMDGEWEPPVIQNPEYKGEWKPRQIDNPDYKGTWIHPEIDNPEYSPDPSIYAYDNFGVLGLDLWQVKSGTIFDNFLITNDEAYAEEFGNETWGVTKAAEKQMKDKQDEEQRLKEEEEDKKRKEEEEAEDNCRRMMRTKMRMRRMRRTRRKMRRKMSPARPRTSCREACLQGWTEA
Protocol: as §1

[5] = target: T4, CALRdel52 (mutant calreticulin, 52 base pair deletion, Type 1) expressed with MPL on engineered cancer cells (UniProt P27797 18-417); assay: flow cytometry on OCI-M2 MPL CALRdel52 cells, 1 h at 37 C, AF647 secondary antibody, Geometric Mean
T4 construct: whole, on cells; On the cell surface in complex with MPL; also called OCI-M2 MPL CALRdel52
T4 sequence (looked up): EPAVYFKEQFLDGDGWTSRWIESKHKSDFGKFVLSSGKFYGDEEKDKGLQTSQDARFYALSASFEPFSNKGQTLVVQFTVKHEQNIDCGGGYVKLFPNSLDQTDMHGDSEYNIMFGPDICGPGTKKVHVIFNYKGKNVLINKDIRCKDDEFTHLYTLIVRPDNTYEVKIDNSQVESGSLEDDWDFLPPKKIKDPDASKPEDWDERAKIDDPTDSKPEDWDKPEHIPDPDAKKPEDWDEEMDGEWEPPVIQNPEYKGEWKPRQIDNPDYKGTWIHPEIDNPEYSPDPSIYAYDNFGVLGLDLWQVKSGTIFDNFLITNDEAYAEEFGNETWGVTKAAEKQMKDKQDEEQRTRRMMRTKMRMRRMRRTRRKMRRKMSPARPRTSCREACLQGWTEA
Protocol: as §1

T1 sequence (P07766 23-207): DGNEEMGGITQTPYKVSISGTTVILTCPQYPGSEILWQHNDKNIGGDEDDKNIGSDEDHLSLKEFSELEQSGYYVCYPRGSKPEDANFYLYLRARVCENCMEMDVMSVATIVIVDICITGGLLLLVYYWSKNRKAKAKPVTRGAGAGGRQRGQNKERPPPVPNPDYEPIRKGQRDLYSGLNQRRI

| Molecule | phage ELISA signal (Coating: CALR) [1] | EC50 (read off the curve) [2] [nM] | binding result [3] | EC50 (read off the curve) [4] [nM] | EC50 (read off the curve) [5] [nM] | binding result [2] |
| --- | --- | --- | --- | --- | --- | --- |
| M13KO7 | 0.225 |  |  |  |  |  |
| CALRB1508 CALRmut x CD3 bispecific antibody (bispecific antibody, human IgG1, kappa, L234A L235A, Chain A: CD3 spFv-Fc; Chain B: CALRB1114 Fab arm) scFv: DIQMTQSPSSLSASVGDRVTITCRARQSIGTAIHWYQQKPGCAPKLLIKYASESISGVPSRFSGSGSGTDFTLTISSLQPEDFATYYCQQSGSWPYTFGQGTKLEIKGGGSGGSGGCPPCGGSGGEVQLVESGGGLVKPGGSLRLSCAASGFTFSRYNMNWVRQAPGKGLEWVSSISTSSNYIYYADSVKGRFTFSRDNAKNSLDLQMSGLRAEDTAIYYCTRGWGPFDYWGCGTLVTVSSEPKSSDKTHTCPPCPAPEAAGGPSVFLFPPKPKDTLMISRTPEVTCVVVSVSHEDPEVKFNWYVDGVEVHNAKTKPREEQYNSTYRVVSVLTVLHQDWLNGKEYKCKVSNKALPAPIEKTISKAKGQPREPQVYTLPPSREEMTKNQVSLWCLVKGFYPSDIAVEWESNGQPENNYKTTPPVLDSDGSFFLYSKLTVDKSRWQQGNVFSCSVMHEALHNHYTQKSLSLSPGK heavy: QVQLVQSGAEVKKPGASVKVSCKASGFSLSSYAMSWVRQAPGQGLEWMGVIDSGGTTYYAQKFQGRVTMTRDTSTSTVYMELSSLRSEDTAVYYCARESYAGYDYYGHPIPYGMEPWGQGTLVTVSSASTKGPSVFPLAPSSKSTSGGTAALGCLVKDYFPEPVTVSWNSGALTSGVHTFPAVLQSSGLYSLSSVVTVPSSSLGTQTYICNVNHKPSNTKVDKKVEPKSCDKTHTCPPCPAPEAAGGPSVFLFPPKPKDTLMISRTPEVTCVVVSVSHEDPEVKFNWYVDGVEVHNAKTKPREEQYNSTYRVVSVLTVLHQDWLNGKEYKCKVSNKALPAPIEKTISKAKGQPREPQVYTLPPSREEMTKNQVSLSCAVKGFYPSDIAVEWESNGQPENNYKTTPPVLDSDGSFFLVSKLTVDKSRWQQGNVFSCSVMHEALHNRFTQKSLSLSPGK light: DIQMTQSPSTLSASVGDRVTITCQASQSLYNNKNLAWYQQKPGKAPKLLIYYASALASGVPSRFSGSGSGTEFTLTISSLQPDDFATYYCQGEFNCNSADCNSFGGGTKVEIKRTVAAPSVFIFPPSDEQLKSGTASVVCLLNNFYPREAKVQWKVDNALQSGNSQESVTEQDSKDSTYSLSSTLTLSKADYEKHKVYACEVTHQGLSSPVTKSFNRGEC |  | ~3 | no binding (tested: 100 nM) | ~3 | ~4 |  |
| C3CRB126 CALRmut x CD3 bispecific antibody (bispecific antibody, human IgG1, kappa, L234A L235A, Chain A heavy: CALRB1114 Fab heavy part, CD3 spFv (LH), Fc; Chain B heavy: CALRB1114) heavy 1: QVQLVQSGAEVKKPGASVKVSCKASGFSLSSYAMSWVRQAPGQGLEWMGVIDSGGTTYYAQKFQGRVTMTRDTSTSTVYMELSSLRSEDTAVYYCARESYAGYDYYGHPIPYGMEPWGQGTLVTVSSASTKGPSVFPLAPSSKSTSGGTAALGCLVKDYFPEPVTVSWNSGALTSGVHTFPAVLQSSGLYSLSSVVTVPSSSLGTQTYICNVNHKPSNTKVDKKVEPKSCGGGGSGGGGSDIQMTQSPSSLSASVGDRVTITCRARQSIGTAIHWYQQKPGCAPKLLIKYASESISGVPSRFSGSGSGTDFTLTISSLQPEDFATYYCQQSGSWPYTFGQGTKLEIKGGGSGGSGGCPPCGGSGGEVQLVESGGGLVKPGGSLRLSCAASGFTFSRYNMNWVRQAPGKGLEWVSSISTSSNYIYYADSVKGRFTFSRDNAKNSLDLQMSGLRAEDTAIYYCTRGWGPFDYWGCGTLVTVSSEPKSSDKTHTCPPCPAPEAAGGPSVFLFPPKPKDTLMISRTPEVTCVVVSVSHEDPEVKFNWYVDGVEVHNAKTKPREEQYNSTYRVVSVLTVLHQDWLNGKEYKCKVSNKALPAPIEKTISKAKGQPREPQVYTLPPSREEMTKNQVSLWCLVKGFYPSDIAVEWESNGQPENNYKTTPPVLDSDGSFFLYSKLTVDKSRWQQGNVFSCSVMHEALHNHYTQKSLSLSPGK heavy 2: QVQLVQSGAEVKKPGASVKVSCKASGFSLSSYAMSWVRQAPGQGLEWMGVIDSGGTTYYAQKFQGRVTMTRDTSTSTVYMELSSLRSEDTAVYYCARESYAGYDYYGHPIPYGMEPWGQGTLVTVSSASTKGPSVFPLAPSSKSTSGGTAALGCLVKDYFPEPVTVSWNSGALTSGVHTFPAVLQSSGLYSLSSVVTVPSSSLGTQTYICNVNHKPSNTKVDKKVEPKSCDKTHTCPPCPAPEAAGGPSVFLFPPKPKDTLMISRTPEVTCVVVSVSHEDPEVKFNWYVDGVEVHNAKTKPREEQYNSTYRVVSVLTVLHQDWLNGKEYKCKVSNKALPAPIEKTISKAKGQPREPQVYTLPPSREEMTKNQVSLSCAVKGFYPSDIAVEWESNGQPENNYKTTPPVLDSDGSFFLVSKLTVDKSRWQQGNVFSCSVMHEALHNRFTQKSLSLSPGK light: DIQMTQSPSTLSASVGDRVTITCQASQSLYNNKNLAWYQQKPGKAPKLLIYYASALASGVPSRFSGSGSGTEFTLTISSLQPDDFATYYCQGEFNCNSADCNSFGGGTKVEIKRTVAAPSVFIFPPSDEQLKSGTASVVCLLNNFYPREAKVQWKVDNALQSGNSQESVTEQDSKDSTYSLSSTLTLSKADYEKHKVYACEVTHQGLSSPVTKSFNRGEC |  |  | no binding (tested: 100 nM) |  | ~1 | binds |
| C3CRB75 CALRmut x CD3 bispecific antibody (bispecific antibody, human IgG1, kappa, L234A L235A, Chain A heavy: CALRB421 Fab heavy part, CD3 spFv, Fc; Chain B heavy: CALRB421; one light chain on each) heavy 1: EVQLLESGGGLVQPGGSLRLSCAVSGIDLSNNAISWVRQAPGKGLEYVGVIGNTGDTYYADSAKGRFTISRDSSKTTLYLQMNSLRAEDTAVYFCVRGPPSYSSSVKNIWGQGTLVTVSSASTKGPSVFPLAPSSKSTSGGTAALGCLVKDYFPEPVTVSWNSGALTSGVHTFPAVLQSSGLYSLSSVVTVPSSSLGTQTYICNVNHKPSNTKVDKKVEPKSCDGGGGSGGGGSDIQMTQSPSSLSASVGDRVTITCRARQSIGTAIHWYQQKPGCAPKLLIKYASESISGVPSRFSGSGSGTDFTLTISSLQPEDFATYYCQQSGSWPYTFGQGTKLEIKGGGSGGSGGCPPCGGSGGEVQLVESGGGLVKPGGSLRLSCAASGFTFSRYNMNWVRQAPGKGLEWVSSISTSSNYIYYADSVKGRFTFSRDNAKNSLDLQMSGLRAEDTAIYYCTRGWGPFDYWGCGTLVTVSSEPKSSDKTHTCPPCPAPEAAGGPSVFLFPPKPKDTLMISRTPEVTCVVVSVSHEDPEVKFNWYVDGVEVHNAKTKPREEQYNSTYRVVSVLTVLHQDWLNGKEYKCKVSNKALPAPIEKTISKAKGQPREPQVYTLPPSREEMTKNQVSLWCLVKGFYPSDIAVEWESNGQPENNYKTTPPVLDSDGSFFLYSKLTVDKSRWQQGNVFSCSVMHEALHNHYTQKSLSLSPGK heavy 2: EVQLLESGGGLVQPGGSLRLSCAVSGIDLSNNAISWVRQAPGKGLEYVGVIGNTGDTYYADSAKGRFTISRDSSKTTLYLQMNSLRAEDTAVYFCVRGPPSYSSSVKNIWGQGTLVTVSSASTKGPSVFPLAPSSKSTSGGTAALGCLVKDYFPEPVTVSWNSGALTSGVHTFPAVLQSSGLYSLSSVVTVPSSSLGTQTYICNVNHKPSNTKVDKKVEPKSCDKTHTCPPCPAPEAAGGPSVFLFPPKPKDTLMISRTPEVTCVVVSVSHEDPEVKFNWYVDGVEVHNAKTKPREEQYNSTYRVVSVLTVLHQDWLNGKEYKCKVSNKALPAPIEKTISKAKGQPREPQVYTLPPSREEMTKNQVSLSCAVKGFYPSDIAVEWESNGQPENNYKTTPPVLDSDGSFFLVSKLTVDKSRWQQGNVFSCSVMHEALHNRFTQKSLSLSPGK light: DIQMTQSPSSVSASVGDRVTITCQSSQSVYNNNWLSWLQQKPGKAPKRLIYDASKLESGVPSRFSGSGSGTDFTLTISSVQPEDAATYYCAGGFTGNVYTFGGGTKVEIKRTVAAPSVFIFPPSDEQLKSGTASVVCLLNNFYPREAKVQWKVDNALQSGNSQESVTEQDSKDSTYSLSSTLTLSKADYEKHKVYACEVTHQGLSSPVTKSFNRGEC |  |  | no binding (tested: 100 nM) | ~0.5 | ~2 | binds |
